Experimental data from US20260217861.

System: mouse GPV with point mutation R476A in the thrombin cleavage site (Gp5^dThr platelets)
Sequence (chain, as listed by the source R476A): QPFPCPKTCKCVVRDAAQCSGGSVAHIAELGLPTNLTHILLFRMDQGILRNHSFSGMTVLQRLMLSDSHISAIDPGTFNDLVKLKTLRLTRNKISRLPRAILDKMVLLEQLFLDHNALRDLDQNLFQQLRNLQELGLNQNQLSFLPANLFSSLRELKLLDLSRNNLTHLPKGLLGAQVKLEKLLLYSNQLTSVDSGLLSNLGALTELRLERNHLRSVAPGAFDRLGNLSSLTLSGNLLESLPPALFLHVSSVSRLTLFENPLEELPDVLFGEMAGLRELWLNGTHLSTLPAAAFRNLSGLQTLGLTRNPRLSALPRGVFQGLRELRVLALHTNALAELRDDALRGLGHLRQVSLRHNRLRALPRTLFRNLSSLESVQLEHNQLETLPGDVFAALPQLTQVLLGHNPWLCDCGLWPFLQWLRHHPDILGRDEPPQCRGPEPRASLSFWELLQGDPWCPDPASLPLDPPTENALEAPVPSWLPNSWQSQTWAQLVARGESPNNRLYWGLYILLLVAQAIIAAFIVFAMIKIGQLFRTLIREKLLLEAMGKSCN

human thrombin (Roche, Sigma-Aldrich #10602400001)
cleavage of GPV by thrombin (sGPV ELISA, flow cytometry): GPV was completely resistant to cleavage by thrombin
